Test results published in PMC10374146.

B1: BME_RS13655 (2Fe-2S binding protein) (dsDNA)
DNA 1: CGGTTTATTTTGTTTTTTTAGTTTC
DNA 2: GAAACTAAAAAAACAAAATAAACCG
B2: BME_RS09560 (hypothetical protein) (dsDNA)
DNA 1: ATGTTATAGAGCGATTCTGGTT
DNA 2: AACCAGAATCGCTCTATAACAT
B3: BME_RS10660 (zntA) (dsDNA)
DNA 1: TCAGGCAAGCTTCATGCCCATATCC
DNA 2: GGATATGGGCATGAAGCTTGCCTGA
B4: BME_RS01725 (membrane protein) (dsDNA)
DNA 1: GCATATTTTAGAATTATTCTAAATT
DNA 2: AATTTAGAATAATTCTAAAATATGC
B5: BME_RS14525 (ftrA) (dsDNA)
DNA 1: CTTAATGAAAAATCTATTCAG
DNA 2: CTGAATAGATTTTTCATTAAG

biological target: Irr (iron response regulator) (Brucella melitensis M5-90, UniProt Q842L5 1-145); assay: EMSA; conditions: protein: ivt; tags: Halo (pDAP-Halo-Kan vector); chain copies: 2; label: biotin; blunt

Does B1 bind?
Result: binds

Does B2 bind?
Result: binds

Does B3 bind?
Result: binds

Does B4 bind?
Result: binds

Does B5 bind?
Result: binds
